Laboratory results published in patent publication US20220162314A1 (ASHER BIOTHERAPEUTICS, published 2022).
Positions count from the first letter of the chain named.

B1: xhCD8v13 (antibody, human IgG1, V domains shown)
VH: QVQLVQSGAEVKKPGSSVKVSCKASGGTFSSYAISWVRQAPGQGLEWMGGIIPGYATANYAQKFQGRVTITADESTSTAYMELSSLRSEDTAVYYCARDAAGIRLFADWGQGTLVTVSS
VL: DIQMTQSPSSLSASVGDRVTITCRASQEIYGALNWYQQKPGKAPKLLIYGATNLQSGVPSRFSGSGSGTDFTLTISSLQPEDFATYYCQSTYDAPWTFGGGTKVEIK
notes: Improved version based on xhCD8v2
B2: xhCD8v3 (antibody, human IgG1, V domains shown)
VH: B1 VH with G27S, T28R, S30Y, S31K, Y32F, Y55H, T57K, A100G, A101L
VL: B1 VL with S90D, T91I
B3: xhCD8v4 (antibody, human IgG1, V domains shown)
VH: B1 VH with G27Y, S30T, S31K, Y55H, T57K, A100G, A101L
VL: B1 VL with E28K, S90N, A94T
B4: xhCD8v5 (antibody, human IgG1, V domains shown)
VH: B1 VH with G27S, T28G, S30R, S31G, Y32H, Y55H, T57K, A100G, A101L
VL: B1 VL with E28K, S90N, A94T
B5: xhCD8v9 (antibody, human IgG1, V domains shown)
VH: B1 VH with Y55A
VL: B1 VL
notes: as for B1
B6: xhCD8v1 (antibody, V domains shown)
VH: QVHLQQSGPELVKPGASVKMSCKTSGYTFTKYTMHWVKQGHEESLEWIGHFNPNNDETKYNQKFTGKATLTVDKSSTTAYMELRSLTSDDSALYYCARDGLGLRLFADWGQGTLITVSA
VL: DIQMTQSPASLSASVGETVTITCGASENIYGALNWYQRKQGKSPQLLIFGATNLADGVSSRFSGSGSDRQYSLKISSLHPDDVATYYCQNILDTPWTFGGGTKLEIK
notes: Mouse monoclonal antibody against CD8b; also called mouse monoclonal antibody xhCD8v1; xCD8v1
B7: xhCD8v12 (antibody, human IgG1, V domains shown)
VH: B1 VH
VL: B1 VL with E28S, T52S, D93T
notes: as for B1
B8: xhCD8v10 (antibody, human IgG1, V domains shown)
VH: EVQLVESGGGLVQPGGSLRLSCAASGFTFSSYAMSWVRQAPGKGLEWVSDITYAGGSTAYADSVKGRFTISRDNAKNSLYLQMNSLRAEDTAVYYCARSNAYAWDDALDIWGQGTMVTVSS
VL: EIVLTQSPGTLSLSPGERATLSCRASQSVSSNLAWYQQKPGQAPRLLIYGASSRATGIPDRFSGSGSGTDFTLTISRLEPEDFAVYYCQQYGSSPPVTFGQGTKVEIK
notes: Improved version based on xhCD8v6
B9: xhCD8v11 (antibody, human IgG1, V domains shown)
VH: B8 VH with M116L
VL: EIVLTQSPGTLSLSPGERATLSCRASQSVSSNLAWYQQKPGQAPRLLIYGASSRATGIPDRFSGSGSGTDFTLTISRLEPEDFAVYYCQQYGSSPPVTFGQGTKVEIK
notes: as for B8
B10: xhCD8v14 (antibody, human IgG1, V domains shown)
VH: B8 VH with T52S
VL: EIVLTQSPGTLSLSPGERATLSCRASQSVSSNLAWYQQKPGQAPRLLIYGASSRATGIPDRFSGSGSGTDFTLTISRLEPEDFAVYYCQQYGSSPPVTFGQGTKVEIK
notes: as for B8
B11: xhCD8v15 (antibody, human IgG1, V domains shown)
VH: B8 VH with T52S, M116L
VL: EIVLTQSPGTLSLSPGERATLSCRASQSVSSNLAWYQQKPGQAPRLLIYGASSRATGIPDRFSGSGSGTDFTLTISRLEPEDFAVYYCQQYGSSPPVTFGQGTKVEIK
notes: as for B8
B12: xhCD8v8 (antibody, human IgG1, V domains shown)
VH: QVQLQQSGAELVRPGSSVKISCKASGYAFSSYWMNWVKQRPGQGLEWIGQIYPGDGDTNYNGKFKGKATLTADKSSSTAYMQLSSLTSEDSAVYFCARSGAAFSSYYAMDYWGQGTSVTVSS
VL: DIQMTQSPASLSVSVGETVTITCRASENIYSNLAWYQQKQGKSPQLLVYAATNLADGVPSRFSGSGSGTQYSLKINSLQSEDFGSYYCQHFWGTPWTFGGGTKLEIK
notes: also called xCD8v8
B13: xhCD8v7 (antibody, human IgG1, V domains shown)
VH: EVQLVESGGGLVQPGRSLRLSCAASGFTFDDYAMHWVRQAPGKGLEWVAVISYDGSNKYYADSVKGRFTISRDNSKNTLYLQMNSLRAEDTAVYYCAKDRIGWYDYDAFDIWGQGTMVTVSS
VL: EIVLTQSPATLSVTPGEGATLSCRASHSVGSNLAWYQQKPGQAPRLLIYDASNRATGIPARFSGSGSGTDFTLTISSLEPEDLAVYYCQQRSNWPPTFGQGTRLEIK
B14: xhCD8v6 (antibody, human IgG1, V domains shown)
VH: EVQLVESGGGAVRPGGSLRLSCAASGFTFDDYGMSWVRQAPGKGLEWVSDINWSGEITAYADSVKGRFTISRDNAKNSLYLQMNSLRAEDTAVYYCARSNSYRWDDALDIWGQGTMVTVSS
VL: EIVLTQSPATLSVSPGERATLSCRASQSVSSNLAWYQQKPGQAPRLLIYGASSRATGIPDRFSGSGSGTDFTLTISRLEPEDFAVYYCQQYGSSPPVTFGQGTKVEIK
notes: also called xCD8v6
B15: xhCD8v2 (antibody, human IgG1, V domains shown)
VH: B1 VH with G27Y, T28R, S30H, S31N, Y32F, Y55H, T57K, A100G, A101L
VL: B1 VL with S90D, T91I

Target: T1, Recombinant CD8b (Sino biological) (human, UniProt P10966 22-170, limits assumed)
T1 construct: also called CD8b alone
Experiment: ELISA, coated recombinant CD8b
Experimental: (§1) Binding specificity of the antibodies was determined by ELISA. […] of recombinant CD8ab, CD8a (Sino biological), CD8b (Sino biological) and ovalbumin (Sigma) or Erb2 (human epidermal growth factor receptor 2) (Sino biological) in PBS were coated onto the maxisorp plate overnight at 4° C. Ovalbumin or Erb2 was used as negative control. Plate was then blocked with casein blocking solution (Thermo Scientific) for 1 hr at room temperature. After blocking, plate was washed with wash buffer (PBS/0.05% Tween-20). Next, dilution of antibody from 30 nM to 0.0009 nM in PBS/0.5% BSA/0.05% Tween-20 was added onto the plate and incubated for 1-2 hr at room temperature. After incubation, plate was washed, and incubated with anti-human IgG (Fc specific)-HRP conjugate or anti-mouse IgG (Fc specific)-HRP conjugate (Jackson Immunoresearch) in PBS/0.5% BSA/0.05% Tween-20 for 1 hr. Binding was detected by adding TMB substrate (SeraCare) to the plate, followed by stopping solution of 0.1M HCl. Binding absorbance was read using GloMax® Discover Microplate Reader (Promega).

T1 sequence (P10966 22-170 limits assumed): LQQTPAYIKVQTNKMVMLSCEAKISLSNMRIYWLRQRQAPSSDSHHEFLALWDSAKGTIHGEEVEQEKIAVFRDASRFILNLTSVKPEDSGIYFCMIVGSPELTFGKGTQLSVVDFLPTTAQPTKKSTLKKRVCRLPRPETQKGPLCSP

Binder | binding result
B1 | binds
B2 | binds
B3 | binds
B4 | binds
B5 | binds

Target: T2, CD8 on human CD8+ T cells (CD3+CD8a+CD8b+ cells of hPBMCs) (human, UniProt P01732 22-235; P10966 22-210)
T2 construct: whole, on cells; also called CD8ab+ T cells
Experiment: flow cytometry, CD8+ T cells, anti-human Fc MFI
Experimental: (§2) The binding of CD8ab antibodies on cells was determined by flow cytometry. Freshly isolated PBMCs were incubated with CD8ab antibodies for 2 hours at 4° C. Cells were then stained with antibodies against surface markers CD3 (UCHT1), CD4 (RPA-T4), CD8a (SK1), CD56 (HCD56), and anti-human Fc antibody (HP6017). Anti-human Fc antibody was used to measure the binding of CD8ab antibodies containing hFc. Stained cells were washed and analyzed by flow cytometry and mean fluorescence intensity (MFI) of staining with anti-hFc was used to denote binding.

T2 sequence (P01732 22-235, chain 1 of 2): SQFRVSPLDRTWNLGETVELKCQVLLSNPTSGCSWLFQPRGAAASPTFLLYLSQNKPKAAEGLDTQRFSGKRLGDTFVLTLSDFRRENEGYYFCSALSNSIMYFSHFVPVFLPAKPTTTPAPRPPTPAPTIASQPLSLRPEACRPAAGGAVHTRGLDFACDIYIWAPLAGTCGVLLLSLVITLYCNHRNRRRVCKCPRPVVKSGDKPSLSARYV
T2 sequence (P10966 22-210, chain 2 of 2): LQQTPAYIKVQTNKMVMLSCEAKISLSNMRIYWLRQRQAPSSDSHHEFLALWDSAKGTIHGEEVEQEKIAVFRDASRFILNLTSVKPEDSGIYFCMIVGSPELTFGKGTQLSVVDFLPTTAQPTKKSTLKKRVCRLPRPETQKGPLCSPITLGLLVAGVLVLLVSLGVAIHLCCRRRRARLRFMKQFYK

Binder | EC50 (read off the curve) [nM]
B6 | ~0.3

Target: T3, Recombinant CD8a (Sino biological) (human, UniProt P01732 22-182)
T3 construct: also called CD8a alone
Experiment: ELISA, coated recombinant CD8a, antibody 30 nM to 0.0009 nM
Experimental: as §1

T3 sequence (P01732 22-182 limits assumed): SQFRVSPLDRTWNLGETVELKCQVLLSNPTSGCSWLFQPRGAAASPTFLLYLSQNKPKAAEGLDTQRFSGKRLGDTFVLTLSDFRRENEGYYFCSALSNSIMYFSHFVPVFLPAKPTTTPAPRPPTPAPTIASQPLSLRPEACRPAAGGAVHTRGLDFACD

Binder | binding result
B1 | no binding (tested: 30 nM)
B2 | no binding (tested: 30 nM)
B3 | no binding (tested: 30 nM)
B4 | no binding (tested: 30 nM)
B5 | no binding (tested: 30 nM)

Target: T4, Recombinant human CD8ab protein (extracellular domains of CD8a and CD8b with leucine zippers and tags) (human, UniProt P01732 22-182; P10966 22-170)
T4 construct: extracellular domain; Secreted from HEK293 cells; also called recombinant CD8ab; soluble CD8ab antigen; not shown: acidic leucine zipper; 8x Histidine tag; basic leucine zipper; Strep-tag II
Experiment: SPR as in Example 1 (antibody captured, soluble CD8ab as analyte)
Experimental: (§3) Recombinant human CD8ab protein was generated. […] Antibodies were first captured on an anti-hJgG-Fc CM5 or CM4 surface prepared using the Human Antibody Capture Kit (Cytiva). […] Dissociation was monitored for 5-10 minutes, and the anti-hJgG-Fc surface was regenerated with 3M MgCl2 before recapturing mAb in each subsequent cycle. Binding data were analyzed by Biacore T200 Evaluation Software version 3.2 using a 1:1 binding model.

T4 sequence (P01732 22-182, chain 1 of 2): as the sequence (P01732 22-182 limits assumed) above
T4 sequence (P10966 22-170, chain 2 of 2): as the sequence (P10966 22-170 limits assumed) above

Binder | Kd [nM] | koff [s⁻¹] | kon [M⁻¹ s⁻¹]
B1 | 81.8 | 0.0301 | 368000
B5 | 121 | 0.0273 | 225000
B7 | 105 | 0.0271 | 259000
B8 | 36.4 | 0.00386 | 106000
B9 | 37.8 | 0.00361 | 95500
B10 | 52.9 | 0.00855 | 162000
B11 | 94.3 | 0.0175 | 186000

Target: T4, Recombinant human CD8ab protein …
Experiment: SPR as in Example 1 (antibody captured, soluble CD8ab as analyte), steady state fit
Experimental: as §3

Binder | Kd [nM]
B12 | 236

Target: T2, CD8 on human CD8+ T cells …
Experiment: flow cytometry on human PBMCs, CD8+ T cells (CD3+CD8a+CD8b+), anti-human Fc MFI
Experimental: (§4) Binding of CD8ab antibodies to T cells (FIG. 4) and NK cells (FIG. 5) in hPBMCs was detected by staining with anti-human Fc antibody conjugated to APC. Anti-hFc was used to measure the binding of CD8 antibodies containing hFc. Mean fluorescence intensity (MFI) of staining with anti-hFc is used to denote binding. Binding of anti-hFc was determined in CD3+CD8a+CD8b+ cells (CD8+ T cells) and CD3-CD56+CD8a+ cells (CD8+NK cells).
as §2

Binder | EC50 (read off the curve) [nM]
B13 | ~0.05
B6 | ~0.3
B14 | ~0.3

Target: T5, CD8aa on human CD8+ NK cells (CD3-CD56+CD8a+ cells of hPBMCs) (human, UniProt P01732 22-235)
T5 construct: whole, on cells; also called CD8aa+ NK cells
Experiment: flow cytometry on human PBMCs, CD8+ NK cells (CD3-CD56+CD8a+), anti-human Fc MFI
Experimental: as §4, §2

T5 sequence (P01732 22-235): as the sequence (P01732 22-235, chain 1 of 2) above

Binder | binding result
B13 | no binding (tested: 100 nM)
B6 | no binding (tested: 100 nM)
B14 | no binding (tested: 100 nM)

Target: T4, Recombinant human CD8ab protein …
Experiment: ELISA: antigen coated on the plate, antibody titrated, anti-IgG (Fc)-HRP and TMB, A450
Experimental: as §1

Binder | EC50 (read off the curve) [nM]
B13 | ~0.09
B6 | ~0.05
B15 | ~0.03
B7 | ~0.02
B14 | ~0.07

Target: T3, Recombinant CD8a (Sino biological)
Experiment: as above
Experimental: as §1

Binder | binding result
B13 | no binding (tested: 30 nM)
B6 | no binding (tested: 30 nM)
B15 | no binding (tested: 30 nM)
B7 | no binding (tested: 30 nM)
B14 | no binding (tested: 30 nM)

Target: T1, Recombinant CD8b (Sino biological)
Experiment: as above
Experimental: as §1

Binder | binding result | EC50 (read off the curve) [nM]
B13 | no binding (tested: 30 nM) | 
B6 |  | ~0.09
B15 |  | ~0.06
B7 |  | ~0.05
B14 | no binding (tested: 30 nM) | 

Target: T4, Recombinant human CD8ab protein …
Experiment: SPR (Biacore T200, 37 C), antibody captured by anti-human IgG Fc, soluble CD8ab as analyte, 1:1 model
Experimental: as §3

Binder | Kd [nM] | koff [s⁻¹] | kon [M⁻¹ s⁻¹]
B13 | 1.08 | 0.000922 | 855000
B6 | 19.8 | 0.0183 | 922000
B15 | 41.6 | 0.02 | 483000
B2 | 72.3 | 0.0379 | 524000
B3 | 137 | 0.0493 | 360000
B4 | 117 | 0.0419 | 357000
B14 | 0.35 | 0.000571 | 1.62e+06
